Experimental data as given in patent US20220153832A1 (PIONYR IMMUNOTHERAPEUTICS, published 2022).

T1: N-terminally polyhistidine tagged human MARCO ECD (147-520), recombinant (human, UniProt Q9UEW3 147-520)
T1 construct: also called PI-RG-3000; recombinant human MARCO; not shown: N-terminal polyhistidine tag
T1 sequence: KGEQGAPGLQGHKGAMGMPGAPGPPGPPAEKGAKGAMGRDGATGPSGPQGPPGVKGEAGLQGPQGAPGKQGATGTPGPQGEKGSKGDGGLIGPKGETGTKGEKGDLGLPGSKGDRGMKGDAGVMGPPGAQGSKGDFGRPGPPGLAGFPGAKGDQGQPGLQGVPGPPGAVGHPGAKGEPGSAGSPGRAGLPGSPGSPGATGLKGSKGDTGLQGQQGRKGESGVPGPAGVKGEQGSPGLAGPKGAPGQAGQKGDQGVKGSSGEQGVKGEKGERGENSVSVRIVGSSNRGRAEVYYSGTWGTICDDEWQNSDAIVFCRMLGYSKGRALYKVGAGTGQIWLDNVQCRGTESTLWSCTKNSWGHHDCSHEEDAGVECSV

T2: mouse MARCO (R&D biosystems), recombinant, coated in the LDL competition assay (mouse, UniProt Q60754 70-518, limits assumed)
T2 sequence (looked up): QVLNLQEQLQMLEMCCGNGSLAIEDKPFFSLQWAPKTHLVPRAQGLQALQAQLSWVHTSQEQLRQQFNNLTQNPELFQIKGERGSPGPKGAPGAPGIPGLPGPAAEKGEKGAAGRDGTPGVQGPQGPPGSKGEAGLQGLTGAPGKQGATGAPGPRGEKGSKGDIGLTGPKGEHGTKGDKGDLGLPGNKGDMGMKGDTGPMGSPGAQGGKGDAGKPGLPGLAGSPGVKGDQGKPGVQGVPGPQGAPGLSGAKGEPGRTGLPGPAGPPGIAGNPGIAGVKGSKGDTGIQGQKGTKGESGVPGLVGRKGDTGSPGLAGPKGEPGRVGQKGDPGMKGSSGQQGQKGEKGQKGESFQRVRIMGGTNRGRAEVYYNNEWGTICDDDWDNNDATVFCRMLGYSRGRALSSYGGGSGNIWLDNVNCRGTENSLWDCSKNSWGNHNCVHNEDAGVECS

T3: Mouse MARCO, full length, on cells (mouse, UniProt Q60754 1-518)
T3 construct: whole, on cells; the cell type is named under assay; also called muMARCO; MuMARCO
T3 sequence (looked up): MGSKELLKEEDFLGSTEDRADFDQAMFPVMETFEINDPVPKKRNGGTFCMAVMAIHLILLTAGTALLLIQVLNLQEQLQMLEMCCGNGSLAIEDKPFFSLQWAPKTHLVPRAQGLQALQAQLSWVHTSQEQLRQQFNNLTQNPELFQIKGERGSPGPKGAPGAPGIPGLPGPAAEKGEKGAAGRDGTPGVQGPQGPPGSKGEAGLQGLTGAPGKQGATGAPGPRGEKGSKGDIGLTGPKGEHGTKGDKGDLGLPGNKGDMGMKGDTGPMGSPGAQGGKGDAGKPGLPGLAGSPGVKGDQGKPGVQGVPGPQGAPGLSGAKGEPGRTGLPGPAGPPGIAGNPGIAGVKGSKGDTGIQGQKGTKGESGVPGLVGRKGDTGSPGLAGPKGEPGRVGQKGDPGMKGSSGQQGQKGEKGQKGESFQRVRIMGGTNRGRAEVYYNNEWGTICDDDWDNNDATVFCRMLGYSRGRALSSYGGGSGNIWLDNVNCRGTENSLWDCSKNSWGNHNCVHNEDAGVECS


Tests used:
[1] = molecular target: T1, N-terminally polyhistidine tagged human …; experiment: SPR, multi cycle kinetics, huMARCO antigen
Method in brief: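 On a CM4 chip, anti-mouse Fc mAb was amine-coupled to a 4500 RU target and used to capture the antibodies. Their binding kinetics and affinity for N-terminally His-tagged human MARCO extracellular domain (147-520) were then measured by multi-cycle surface plasmon resonance on a Biacore T200. This was done at 25° C in 10 mM HEPES pH 7.4, 150 mM NaCl, 3 mM EDTA, 0.05% surfactant P20, with 0.625–10 nM injections, 90 s association and 600 s dissociation, and fitting in BIAevaluation 3.1.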

[2] = molecular target: T2, mouse MARCO (R&D biosystems), …; experiment: LDL competition on coated mouse MARCO (MSD), competitor biotinylated hLDL
Experimental: A high-binding, 96-well MSD plate was coated with 4 μg/ml mouse MARCO or 4 μg/ml human MARCO (R&D biosystems). After the plate was blocked with PBST and 5% BSA for an hour, titrated anti-mouse or anti-human MARCO antibodies were added to the plate and incubated for 30 minutes. Biotinylated hLDL (860 pM or 2 μg/ml) were added to the antibody, and the antibody/LDL mixture was incubated for an hour to allow the mixture to reach binding equilibrium. The plates were washed and bound biotinylated LDL was detected with Sulfo-tagged streptavidin that generates an electrocheminlumenscent signal when read buffer is added and electricity is applied to the electrodes in the MSD plate. IC50's were calculated using a 4-parameter curve fit in GraphPad Prism software.

[3] = molecular target: T3, Mouse MARCO, full length, on cells; experiment: flow cytometry, 293T cells expressing mouse MARCO
Experimental: Supernatants were removed and cell pellets were resuspended in Ca²⁺+ and Mg²⁺+ Dulbecco's phosphate-buffered saline (D-PBS) at 1×10⁶ cells/ml. 100,000 cells/well were plated onto U-bottom 96-well plates for staining and all centrifugation steps were performed at 1500 rpm at 4° C. for 5 min and samples were kept protected from light throughout the protocol. Cells were pelleted and resuspended in 100 μl of Zombie NIR viability dye (BioLegend) prepared by diluting Zombie NIR dimethyl sulfoxide (DMSO) stock 1000-fold in D-PBS. […] Flow cytometry data were analyzed using FlowJo software (version 10.6.1) and data were processed and further analyzed in Microsoft Excel and GraphPad Prism software (version 8). Half-maximal effective concentrations (EC₅₀) were calculated based on geometric mean fluorescence intensities (gMFI). In case when the plates were not able to be analyzed on the cytometer, cells were pelleted after the washes and fixed in 100 μl of 2% paraformaldehyde (PFA), prepared by diluting the 16% (w/v) stock (Thermo Fisher) in DPBS, for 15 min at RT. […]

Kd [1]	EC50 [2]	EC50 [3]	Binder
0.0913 nM	–	–	PI-HX-3031 (antibody, Parental rat hybridoma, rat IgG2a) heavy: QVQLKESGPGLVQPSQTLSLTCTVSGFSLTSYHVSWVRQPPGKGLEWMGAIWTGGSIAYNSLLKSRLSISRDTSKSQVFLKMNSLQTEDTATYYCARDLSDYYSSYTSFDYWGQGVMVTVSTAETTAPSVYPLAPGTALKSNSMVTLGCLVKGYFPEPVTVTWNSGALSSGVHTFPAVLQSGLYTLTSSVTVPSSTWSSQAVTCNVAHPASSTKVDKKIVPRECNPCGCTGSEVSSVFIFPPKTKDVLTITLTPKVTCVVVDISQNDPEVRFSWFIDDVEVHTAQTHAPEKQSNSTLRSVSELPIVHRDWLNGKTFKCKVNSGAFPAPIEKSISKPEGTPRGPQVYTMAPPKEEMTQSQVSITCMVKGFYPPDIYTEWKMNGQPQENYKNTPPTMDTDGSYFLYSKLNVKKETWQQGNTFTCSVLHEGLHNHHTEKSLSHSP light: DIQMTQSPASLSTSLGETVSIECLASEGISNDLAWYQQKSGKSPQLLIYAASRLQDGVPSRFSGSGSGTRYSLKISGMQPEDEADYFCQQSYKYPLTFGSGTKLEIKRADAAPTVSIFPPSTEQLATGGASVVCLMNNFYPRDISVKWKIDGTERRDGVLDSVTDQDSKDSTYSMSSTLSLTKADYESHNLYTCEVVHKTSSSPVVKSFNRNEC
–	0.25 nM	0.47 to 0.75 nM	PI-HX-3021 (antibody, V domains shown, Rat IgG2a hybridoma antibody; Not the effector dead PI-3021; also called PI-3007 (name of the recombinant form)) VH: QVRLVQSGTALVRPGASVRMSCTASGYSFTDYWVSWVKQSHGQSLEWIGEIYPNSGTTNFNEKFEGKATLTVDKSTSTAYMELSRLTSEDSAIYYCTGEGTFDYWGQGVMVTVSS VL: EIVLTQSPTTMAASPGEKVTITCRPSSSLSNMHWFQQKSGTSPKPWIYDTSKLASGVPDRFSGSGSGTSYSLTISSMEAEDAATYYCLQRSSYPPTFGAGTKLELK
–	0.34 nM	0.36 to 0.59 nM	PI-HX-3016 (antibody, rat IgG1, V domains shown, Rat IgG1 hybridoma antibody) VH: EVQLVESGGGLVKPGASLKLSCVASGFTFSDDWMNWVRQTPGKAMEWIGDIKYDGSYTNYVPSLKNRLTISRDNAKNTLYLQMTNVRSEDTATYYCTSGGVFDYWGQGVMVTVSS VL: EIVLSQSPTTMAASPGEKVTITCRASSSVSYMHWFQQKSGTSPKPWIYDTSKLASGVPDRFSGSGSGTSYSLTISSMEAEDAATYYCLQRSGYPPTFGAGTKLEVK
0.256 nM	–	–	PI-HX-3061 (antibody, rat IgG2a, Parental rat hybridoma, rat IgG2a; cross reactive with human and mouse MARCO) heavy: EVQLVESGGGLVQPGSSLKLSCVASKFTFSNYGMNWIRQAPKKGLEWIALIYYNSNNKYYADSVKGRFTISRDNSKNTLYLEMNSLRSEDTAMYYCAKSLTGGSDYFDSWGQGVMVTVSSAETTAPSVYPLAPGTALKSNSMVTLGCLVKGYFPEPVTVTWNSGALSSGVHTFPAVLQSGLYTLTSSVTVPSSTWPSQTVTCNVAHPASSTKVDKKIVPRNCGGDCKPCICTGSEVSSVFIFPPKPKDVLTITLTPKVTCVVVDISQDDPEVHFSWFVDDVEVHTAQTRPPEEQFNSTFRSVSELPILHQDWLNGRTFRCKVTSAAFPSPIEKTISKPEGRTQVPHVYTMSPTKEEMTQNEVSITCMVKGFYPPDIYVEWQMNGQPQENYKNTPPTMDTDGSYFLYSKLNVKKEKWQQGNTFTCSVLHEGLHNHHTEKSLSHSP light: DVQMTQSPSYLAASPGESVSISCKASKSIGTFLAWYQEKPEKTNKLLIYSGSTLQSGTPSRFSGSGSGTDFTLTIRNLEPEDFAVYYCQQHDEYPFTFGSGTKLEIKRADAAPTVSIFPPSTEQLATGGASVVCLMNNFYPRDISVKWKIDGTERRDGVLDSVTDQDSKDSTYSMSSTLSLTKADYESHNLYTCEVVHKTSSSPVVKSFNRNEC
